Measured values reported in IntAct's records for PubMed 24217340.

B1: Zinc finger protein GLI1 (Homo sapiens), P08151 (parent)
chain: MFNSMTPPPISSYGEPCCLRPLPSQGAPSVGTEGLSGPPFCHQANLMSGPHSYGPARETNSCTEGPLFSSPRSAVKLTKKRALSISPLSDASLDLQTVIRTSPSSLVAFINSRCTSPGGSYGHLSIGTMSPSLGFPAQMNHQKGPSPSFGVQPCGPHDSARGGMIPHPQSRGPFPTCQLKSELDMLVGKCREEPLEGDMSSPNSTGIQDPLLGMLDGREDLEREEKREPESVYETDCRWDGCSQEFDSQEQLVHHINSEHIHGERKEFVCHWGGCSRELRPFKAQYMLVVHMRRHTGEKPHKCTFEGCRKSYSRLENLKTHLRSHTGEKPYMCEHEGCSKAFSNASDRAKHQNRTHSNEKPYVCKLPGCTKRYTDPSSLRKHVKTVHGPDAHVTKRHRGDGPLPRAPSISTVEPKREREGGPIREESRLTVPEGAMKPQPSPGAQSSCSSDHSPAGSAANTDSGVEMTGNAGGSTEDLSSLDEGPCIAGTGLSTLRRLENLRLDQLHQLRPIGTRGLKLPSLSHTGTTVSRRVGPPVSLERRSSSSSSISSAYTVSRRSSLASPFPPGSPPENGASSLPGLMPAQHYLLRARYASARGGGTSPTAASSLDRIGGLPMPPWRSRAEYPGYNPNAGVTRRASDPAQAADRPAPARVQRFKSLGCVHTPPTVAGGGQNFDPYLPTSVYSPQPPSITENAAMDARGLQEEPEVGTSMVGSGLNPYMDFPPTDTLGYGGPEGAAAEPYGARGPGSLPLGPGPPTNYGPNPCPQQASYPDPTQETWGEFPSHSGLYPGPKALGGTYSQCPRLEHYGQVQVKPEQGCPVGSDSTGLAPCLNAHPSEGPPHPQPLFSHYPQPSPPQYLQSGPYTQPPPDYLPSEPRPCLDFDSPTHSTGQLKAQLVCNYVQSQQELLWEGGGREDAPAQEPSYQSPKFLGGSQVSPSRAKAPVNTYGPGFGPNLPNHKSGSYPTPSPCHENFVVGANRASHRAAAPPRLLPPLPTCYGPLKVGGTNPSCGHPEVGRLGGGPALYPPPEGQVCNPLDSLDLDNTQLDFVAILDEPQGLSPPPSHDQRGSSGHTPPPSGPPNMAVGNMSVLLRSLPGETEFLNSSA
partner: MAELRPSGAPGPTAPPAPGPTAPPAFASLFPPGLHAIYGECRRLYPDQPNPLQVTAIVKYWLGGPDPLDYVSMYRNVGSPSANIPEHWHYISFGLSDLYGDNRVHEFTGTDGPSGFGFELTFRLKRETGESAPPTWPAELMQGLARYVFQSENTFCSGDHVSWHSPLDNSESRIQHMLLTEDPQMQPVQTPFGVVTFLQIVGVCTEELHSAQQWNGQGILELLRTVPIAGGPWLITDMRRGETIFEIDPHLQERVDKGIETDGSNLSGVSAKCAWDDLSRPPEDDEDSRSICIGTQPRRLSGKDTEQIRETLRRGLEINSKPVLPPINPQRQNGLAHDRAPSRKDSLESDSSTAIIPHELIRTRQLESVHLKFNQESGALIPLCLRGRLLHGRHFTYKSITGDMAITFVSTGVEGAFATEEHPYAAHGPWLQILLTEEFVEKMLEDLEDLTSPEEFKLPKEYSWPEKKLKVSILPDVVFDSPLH
B2: Suppressor of fused homolog (Homo sapiens), Q9UMX1 (parent)
chain: B1 partner
B3: Zinc finger protein GLI2 (Mus musculus), Q0VGT2 (parent)
chain: METSAPAPALEKKEAKSGLLEDSSFPDPGKKACPLAVAAAVAAHGVPQQLLPAFHAPLPIDMRHQEGRYHYDPHSVHSVHGPPTLSGSPVISDISLIRLSPHPAGPGESPFSAHHPYVNPHMEHYLRSVHSSPTLSMISAARGLSPADVAHEHLKERGLFSLAAPGTNPSDYYHQMTLMASHPTPYGDLLMQSGGAASAPHLHDYLNPVDASRFSSPRVTPRLSRKRALSISPLSDASLDLQRMIRTSPNSLVAYINNSRSSSAASGSYGHLSAGALSPAFTFPHPINPVAYQQILSQQRGLGSAFGHTPPLIQPSPTFLAQQPMTLTSISTMPTQLSSSSSNCLNDANQNKQNSESAVSSTVNPITIHKRSKVKTEAEGLRPASPLGLTQEQLADLKEDLDRDDCKQEAEVVIYETNCHWADCTKEYDTQEQLVHHINNEHIHGEKKEFVCRWQACTREQKPFKAQYMLVVHMRRHTGEKPHKCTFEGCSKAYSRLENLKTHLRSHTGEKPYVCEHEGCNKAFSNASDRAKHQNRTHSNEKPYICKIPGCTKRYTDPSSLRKHVKTVHGPDAHVTKKQRNDVHVRAPLLKENGDNEASAEPGGRGPEESVEASSTSHTVEDCLHIKAIKTESSGLCQSSPGAQSSCSSEPSPLGSAPNNDSGMEMPGTGPGSLGDLTALADTCPGADTSALAAPSTGGLQLRKHMSTVHRFEQLKREKLKSLKDSCSWAGPAPHTRNTKLPPLPVNGSVLENFNNTGGGGPAGLLPSQRLPELTEVTMLSQLQERRDSSTSTMSSAYTVSRRSSGISPYFSSRRSSEASPLGGLRPHNASSADSYDPISTDASRRSSEASQCSGGGPGLLNLTPAQQYNLRAKYAAATGGPPPTPLPGLDRVSLRTRLALLDAPERALPGACPHPLGPRRGSDGPTYSHGHGHGYAGAAPAFPHEGPNSSTRRASDPVRRPDPLILPRVQRFHSTHNMNPGSLPPCADRRGLHVQSHPSVDSNLTRNAYSPRPPSINENVVMEAVAAGVDGPGLECDLGLVEDELVLPDDVVQYIKAHTGGTLDDGIRQGYPTEGTGFPENSKLPSPGLQGHRRLAAADSNMGPSAPGLGGCQLSYSPSSNLNKSNMPVQWNEVSSGTVDALPTQVKPPPFPHSNLAVVQQKPAFGQYPGYNPQSVQSSSGGLDSTQPHLQLRGAPSASRGSYTQQPRQPAAGSQCLGMSAAMSPQASYSQAHPQLSPNIVSGSLNQFSPSCSNMAAKPSHLGLPQQMEVVPNATIMNGHQREHGVPNSSLAAVSQPHPVLSYPQQDSYQQGSNLLSSHQPGFMESQQNAGFGLMQPRPPLEPNTASRHRGVRSGQQQLYARTTGQAMVTSANQETAEAMPKGPAGTMVSLAPQPSQDTGRAQDQNTLYYYGQIHMYEQNGGCPAVQPQPPQPQACSDSIQPEPLPSPGVNQVSSTVDSQLLEPPQIDFDAIMDDGDHSSLFSGALSPTLLHNLSQNSSRLTTPRNSLTLPSIPAGISNMAVGDMSSMLTSLAEESKFLNMMT
partner: B1 partner

Variants of: B1
Settings: with sufu_human SUFU, Q9UMX1

Variant	effect of a mutation on the interaction
G122A;H123A;L124D	decreasing interaction

Variants of: B2
Settings: with gli1_human GLI1, P08151

Variant	effect of a mutation on the interaction
Y147R;D159R	disrupting interaction
Y147R;D159R;L380R	disrupting interaction
Y147R;F155A	decreasing interaction
Y147R;F155A;D159A;L380R	disrupting interaction
Y147R;F155A;D159R;L380R	disrupting interaction

Variants of: B2
Settings: with gli2_mouse Gli2, Q0VGT2

Variant	effect of a mutation on the interaction
Y147R;D159R;L380R	disrupting interaction
D159R	decreasing interaction
L380R	decreasing interaction

Variants of: B2
Settings: with gli1_human GLI1, P08151
Remark: another data set of the same source

Variant	effect of a mutation on the interaction
Y147R;F155A	disrupting interaction
Y147R;F155A;D159R	disrupting interaction
D159A	disrupting interaction
D159R	disrupting interaction

Variants of: B2
Settings: with gli2_mouse Gli2, Q0VGT2
Remark: another data set of the same source

Variant	effect of a mutation on the interaction
D159R	disrupting interaction
L380R	disrupting interaction

Variants of: B3
Settings: with sufu_human SUFU, Q9UMX1

Variant	effect of a mutation on the interaction
G270A;H271A;L272D	disrupting interaction
G270V;H271E;L272D	disrupting interaction
